Reference: patent US20240288436A1 (KOREA ATOMIC ENERGY RESEARCH INSTITUTE, published 2024)

T1: Biotin-GSAGGSTWGYPFHDGDYLNDE synthetic peptide (human TM4SF4 aa 126-140) (human, N-terminal biotin)
T1 construct: Immobilised on a streptavidin sensor chip as the SPR ligand; also called Biotin-hTM4SF4 aa 126-140; human TM4SF4-peptide (hTM4SF4 aa 126-140)
T1 peptide: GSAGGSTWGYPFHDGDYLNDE

B1: Hz2B7-1.3 humanized anti-TM4SF4 antibody (LC N31V) (antibody, V domains shown)
VH: EITLKESGPTLVKPTQTLTLTCTFSGFSLSTYGIGVSWIRQPPGKALEWLAHIWWNDNKYYNTALKSRLTITKDTSKNQVVLTMTNMDPVDTATYYCARKEGSSAPFAYWGQGTLVTVSS
VL: DIVMTQSPDSLAVSLGERATINCKSSQSLLVSSNQKNYLAWYQQKPGQPPKLLIYFASTRESGVPDRFSGSGSGTDFTLTISLMQAEDVAVYYCQQHYRTPPTFGQGTKVEIK
notes: Whole IgG, human IgG1 / kappa constant regions from the pdCMV-dhfr vector; only VH and VL are tied to the antibody; also called HzE2B7-1.3; HzE2B7-1.3(LC N31V)
B2: Hz2B7-1.1 humanized anti-TM4SF4 antibody (antibody, human IgG1, V domains shown)
VH: EITLKESGPTLVKPTQTLTLTCTFSGFSLSTYGIGVSWIRQPPGKALEWLAHIWWNDNKYYNTALKSRLTITKDTSKNQVVLTMTNMDPVDTATYYCARKEGSSAPFAYWGQGTLVTVSS
VL: DIVMTQSPDSLAVSLGERATINCKSSQSLLNSSNQKNYLAWYQQKPGQPPKLLIYFASTRESGVPDRFSGSGSGTDFTLTISLMQAEDVAVYYCQQHYRTPPTFGQGTKVEIK
notes: Tested as whole IgG from the pdCMV-dhfr vector (human IgG1 heavy constant, human kappa light constant); also called HzE2B7-1.1; HzE2B7-1.1(origin)
B3: Hz2B7-3.3 humanized anti-TM4SF4 antibody (antibody, human IgG1, V domains shown)
VH: EITLKESGPTLVKPTQTLTLTCTFSGFSLSTYGIGVSWIRQPPGKALEWLAHIWSNDNKYYNTALKSRLTITKDTSKNQVVLTMTNMDPVDTATYYCARKEGSSAPFAYWGQGTLVTVSS
VL: DIVMTQSPDSLAVSLGERATINCKSSQSLLVSSNQKNYLAWYQQKPGQPPKLLIYFASTRESGVPDRFSGSGSGTDFTLTISLMQAEDVAVYYCQQHYRTPPTFGQGTKVEIK
notes: Whole IgG, human IgG1 / kappa constant regions
B4: Hz2B7-1.2 humanized anti-TM4SF4 antibody (LC N31F) (antibody, V domains shown)
VH: EITLKESGPTLVKPTQTLTLTCTFSGFSLSTYGIGVSWIRQPPGKALEWLAHIWWNDNKYYNTALKSRLTITKDTSKNQVVLTMTNMDPVDTATYYCARKEGSSAPFAYWGQGTLVTVSS
VL: DIVMTQSPDSLAVSLGERATINCKSSQSLLFSSNQKNYLAWYQQKPGQPPKLLIYFASTRESGVPDRFSGSGSGTDFTLTISLMQAEDVAVYYCQQHYRTPPTFGQGTKVEIK
notes: Whole IgG, human IgG1 / kappa constant regions from the pdCMV-dhfr vector; only VH and VL are tied to the antibody; also called HzE2B7-1.2; HzE2B7-1.2(LC N31F)
B5: Hz2B7-4.3 humanized anti-TM4SF4 antibody (HC W55Y, LC N31V) (antibody, V domains shown)
VH: EITLKESGPTLVKPTQTLTLTCTFSGFSLSTYGIGVSWIRQPPGKALEWLAHIWYNDNKYYNTALKSRLTITKDTSKNQVVLTMTNMDPVDTATYYCARKEGSSAPFAYWGQGTLVTVSS
VL: DIVMTQSPDSLAVSLGERATINCKSSQSLLVSSNQKNYLAWYQQKPGQPPKLLIYFASTRESGVPDRFSGSGSGTDFTLTISLMQAEDVAVYYCQQHYRTPPTFGQGTKVEIK
notes: Whole IgG, human IgG1 / kappa constant regions; also called HzE2B7-4.3; HzE2B7-4.3(HC W55Y, LC N31V)
B6: Hz2B7-2.1 humanized anti-TM4SF4 antibody (antibody, human IgG1, V domains shown)
VH: EITLKESGPTLVKPTQTLTLTCTFSGFSLSTYGIGVSWIRQPPGKVLEWLAHIWWNDNKYYNTALKSRLTITKDTSKNQVVLTMTNMDPVDTATYYCARKEGSSAPFAYWGQGTLVTVSS
VL: DIVMTQSPDSLAVSLGERATINCKSSQSLLNSSNQKNYLAWYQQKPGQPPKLLIYFASTRESGVPDRFSGSGSGTDFTLTISLMQAEDVAVYYCQQHYRTPPTFGQGTKVEIK
notes: as for B3
B7: Hz2B7-4.1 humanized anti-TM4SF4 antibody (antibody, human IgG1, V domains shown)
VH: EITLKESGPTLVKPTQTLTLTCTFSGFSLSTYGIGVSWIRQPPGKALEWLAHIWYNDNKYYNTALKSRLTITKDTSKNQVVLTMTNMDPVDTATYYCARKEGSSAPFAYWGQGTLVTVSS
VL: DIVMTQSPDSLAVSLGERATINCKSSQSLLNSSNQKNYLAWYQQKPGQPPKLLIYFASTRESGVPDRFSGSGSGTDFTLTISLMQAEDVAVYYCQQHYRTPPTFGQGTKVEIK
notes: as for B3
B8: Hz2B7-3.1 humanized anti-TM4SF4 antibody (antibody, human IgG1, V domains shown)
VH: EITLKESGPTLVKPTQTLTLTCTFSGFSLSTYGIGVSWIRQPPGKALEWLAHIWSNDNKYYNTALKSRLTITKDTSKNQVVLTMTNMDPVDTATYYCARKEGSSAPFAYWGQGTLVTVSS
VL: DIVMTQSPDSLAVSLGERATINCKSSQSLLNSSNQKNYLAWYQQKPGQPPKLLIYFASTRESGVPDRFSGSGSGTDFTLTISLMQAEDVAVYYCQQHYRTPPTFGQGTKVEIK
notes: as for B3
B9: Hz2B7-3.2 humanized anti-TM4SF4 antibody (HC W55S, LC N31F) (antibody, V domains shown)
VH: EITLKESGPTLVKPTQTLTLTCTFSGFSLSTYGIGVSWIRQPPGKALEWLAHIWSNDNKYYNTALKSRLTITKDTSKNQVVLTMTNMDPVDTATYYCARKEGSSAPFAYWGQGTLVTVSS
VL: DIVMTQSPDSLAVSLGERATINCKSSQSLLFSSNQKNYLAWYQQKPGQPPKLLIYFASTRESGVPDRFSGSGSGTDFTLTISLMQAEDVAVYYCQQHYRTPPTFGQGTKVEIK
notes: Whole IgG, human IgG1 / kappa constant regions; also called HzE2B7-3.2; HzE2B7-3.2(HC W55S, LC N31F)
B10: Hz2B7-4.2 humanized anti-TM4SF4 antibody (antibody, human IgG1, V domains shown)
VH: EITLKESGPTLVKPTQTLTLTCTFSGFSLSTYGIGVSWIRQPPGKALEWLAHIWYNDNKYYNTALKSRLTITKDTSKNQVVLTMTNMDPVDTATYYCARKEGSSAPFAYWGQGTLVTVSS
VL: DIVMTQSPDSLAVSLGERATINCKSSQSLLFSSNQKNYLAWYQQKPGQPPKLLIYFASTRESGVPDRFSGSGSGTDFTLTISLMQAEDVAVYYCQQHYRTPPTFGQGTKVEIK
notes: as for B3

Legend:
BSA = target: T2, BSA (UniProt P02769 25-607); assay: indirect ELISA on coated BSA (1 µg/ml), anti-human IgG kappa-HRP, OD490nm
T2 construct: Coated at 1 ug/ml as the specificity control; also called BSA solution
T2 sequence (P02769 25-607 limits assumed): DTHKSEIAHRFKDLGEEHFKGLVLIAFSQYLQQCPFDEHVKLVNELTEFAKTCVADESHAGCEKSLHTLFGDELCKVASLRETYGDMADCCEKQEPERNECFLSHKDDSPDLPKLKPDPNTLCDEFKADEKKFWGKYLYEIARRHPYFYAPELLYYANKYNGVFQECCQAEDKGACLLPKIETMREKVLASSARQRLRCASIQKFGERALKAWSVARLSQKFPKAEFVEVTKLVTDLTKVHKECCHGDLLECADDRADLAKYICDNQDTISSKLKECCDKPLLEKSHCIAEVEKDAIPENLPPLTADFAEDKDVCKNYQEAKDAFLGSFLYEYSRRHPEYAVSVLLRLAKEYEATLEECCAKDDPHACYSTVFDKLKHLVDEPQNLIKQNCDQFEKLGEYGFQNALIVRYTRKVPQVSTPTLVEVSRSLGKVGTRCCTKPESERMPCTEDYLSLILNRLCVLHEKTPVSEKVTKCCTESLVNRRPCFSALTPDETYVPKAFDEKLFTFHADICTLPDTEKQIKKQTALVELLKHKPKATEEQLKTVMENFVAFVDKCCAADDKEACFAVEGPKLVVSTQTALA
Method: Specifically, the humanized antibody was manufactured in 10 types of Hz2B7-1.1, Hz2B7-1.2, Hz2B7-1.3, Hz2B7-2.1, Hz2B7-3.1, Hz2B7-3.2, Hz2B7-3.3, Hz2B7-4.1, Hz2B7-4.2 and Hz2B7-4.3, by combining 4 heavy chain variable region variants and 3 light chain variable region variants designed through Examples 1 and 2 above. For this, 100 μ of TM4SF4-BSA (1 μg/m ) or BSA solution (1 μg/M ) dissolved in coating buffer (100 mM carbonate/bicarbonate coating buffer, pH 9.6) was added to the bottom of each well of a 96-well plate and adsorbed at 4° C. for more than 16 hours. Next, the coated antigen was washed three times with washing buffer (wash buffer, 0.05% PBS-T, Tween-20), then 200 μ of block buffer (blocking buffer, 5% skim milk in wash buffer) was added to the bottom of each well where the antigen was not adsorbed, reacted at 4° C. for more than 16 hours, and then washed again three times with washing buffer. Then, the 10 combinations of the humanized antibodies and the chimeric antibodies purified through Experimental Example 1 were prepared by diluting them to various concentrations using block buffer, and then 100 μ a of each concentration was added to each well and reacted for 2 hours at room temperature. After washing again three times, 1 mg/ml antibody (α-human IgG-Kappa chain-HRP, Bethyl, USA) for detection was diluted 10,000-fold using block buffer solution, and 100 μ was added to each well and incubated at room temperature for 1 hour. After the reaction was completed, the wells were washed three times with washing buffer, 100 μl of substrate solution (OPD solution, 4 μ 30% H₂O₂, 100 μ OPD stock (40 mg/m ), adjusted to 10 m with phosphate citrate buffer) was added to each well, and the reaction was performed at room temperature. Then, 50 μl of 2.5M H₂SO₄ was added to terminate the reaction. Finally, to measure the activity of the enzyme bound to the solid phase, the absorbance was measured at 490 nm using an ELISA reader (FIG. 10).

[1] = target: T1, Biotin-GSAGGSTWGYPFHDGDYLNDE synthetic …; assay: SPR, Biacore T200, biotin-peptide on streptavidin chip, antibody as analyte, 1:1 binding
Method: (§1) First, a streptavidin-conjugated sensor chip (Series S Senser Chip SA, Cytiva) was inserted into Biacore T200 (Cytiva), and activation buffer (1M NaCl, 50 mM NaOH) was flowed for 30 seconds, followed by HBS-EP buffer (Cytiva) to induce activation and stabilization of the sensor chip surface. […] The analyze antibodies of each concentration were flowed through the constructed ligand-bound streptavidin conjugated sensor chip at a rate of 30 ul/min for 480 seconds to induce binding, and then HBS-EP buffer solution was flowed at the same time and speed, and the degree to which the analyte antibody was dissociated from the ligand peptide was obtained in the form of a response unit. The association rate (Ka), dissociation rate (Kd), and equilibrium dissociation constant (KD, Kd/Ka) values were calculated using Biacore T200 evaluation software (Cytiva) by excluding the ligand-unbound sensor chip response values obtained in the same manner. As a calculation standard, the mass transfer fitting model for the interaction between the ligand peptide and the analyte antibody was analyzed using 1:1 binding.

[2] = target: T1, Biotin-GSAGGSTWGYPFHDGDYLNDE synthetic …; assay: SPR (Biacore T200), biotin-TM4SF4(126-140) peptide captured on SA sensor chip, antibody as analyte, 1:1 binding model with mass transfer
Method: as §1

Row | Binder | binding result (BSA) | Kd [1] [nM] | koff [2] [s⁻¹] | kon [2] [M⁻¹ s⁻¹]
1 | B1 | no binding (tested: 1000 ng/ml) | 35.4 | – | –
2 | B2 | no binding (tested: 1000 ng/ml) | – | – | –
3 | B3 | no binding (tested: 1000 ng/ml) | – | – | –
4 | B4 | no binding (tested: 1000 ng/ml) | – | – | –
5 | B5 | no binding (tested: 1000 ng/ml) | – | – | –
6 | B6 | no binding (tested: 1000 ng/ml) | – | – | –
7 | B7 | no binding (tested: 1000 ng/ml) | – | – | –
8 | B8 | no binding (tested: 1000 ng/ml) | – | – | –
9 | B9 | no binding (tested: 1000 ng/ml) | 112 | 0.000792 | 7080
10 | B10 | no binding (tested: 1000 ng/ml) | – | – | –
